# Assay results from a protein production outcome set (Wang et al. 2014).
# Assay: label from the status in PepcDB records
# 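Further: failed if final PepcDB status was selected cloned or expressed and not failed if soluble or beyond.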
row,Sequence,protein production
1,AAKQDVKVFSEDGTSKVVEILADMTARDLCQLLVYKSHCVDDNSWTLVEHHPHLGLERCLEDHELVVQVESTMASESKFLFRKNYAKYEFFK,failed
2,AALAAKVRTLGPSMTRSMQRVAEAVAGDPAGCAALTVTGLAELTGTSEATVVRTARLLGYPGYRDLRLALAGLAAQQQSGRAPAITTDIAVDDPIADVVAKLAYDEQQTL,failed
3,AAPPAPAAKPGSPKKRGKTEVNESLLTPRFYTTDFDEMEQLFNAEINKQLNQDEFDALLQEFKTDYNQTHFIRNPEFKEAADKMQGPLRQIFVEFLERSCTAEFSGFLLYKELGRRLKKTNPVVAEIFSLMSRDEARHAGFLNKGLSDFNLALDLGFLTKARKYTFFKPKFIFYATYLSEKIGYWRYITIFRHLKANPEYQVYPIFKYFENWCQDENRHGDFFSALLKAQPQFLNDWKAKLWSRFFCLSVYITMYLNDCQRSAFYEGIGLNTKEFDMHVIYETNRTTARIFPAVPDVENPEFKRKLDRMVDINLKIISIGESNDLPLVKNLKRVPLIAQLVSEIIAAYLMPPIESGSVDFAEFEPKLVY,failed
4,AAQEKVVKLKIVQTSDVHGNYYPYNFITRKDWQGSLARIYAFVEKEREQYKENLILLDNGDILQGQPTAYYYNYIDTVSPHLCAEMMNYMKYDAGNMGNHDVETGRAVFDRWINTCDFPVLGANIIDISTGEPHLPPYKVMERDGVKIVILGMITPAIPAWLSENLWKGLRFDDMEETARKWMKIIREKENPDLMIGLFHAGQEAFKMSGKYNENASLSVAKNVPGFDIVLMGHDHARECKKVMNVAGDSVLVIDPASNGIVLSNIDVTLKLKDGKVRSKDIKGVLTETKDYGISEDFMKNFAPQYDTVRNFVSK,failed
5,AAQGFVFNLDNPIFKDRRVREALSLLWDFDWINRRVMRNFYVREQSYFPKSDMAATELPTPAELKILEPLRGQVPDEVFTTVYQPPKTDGSGYIRDKQLQALKLLAEAGWHPKNNKLVNAAGEPMVFSFLDGQGGFDRLILPFKRTLAQIGITLDFLRIDSAQYINRLNARDYDMIVVSLPKNGNPIISPGRELYNLYGSQSATEVGSSNAMVLRNPAVDTLIDGLVSANTRNDMVLYARALDRVLQWGYYMIPNYYSK,failed
6,ADIVNLQGVTGGNTYSVPAVTMDLLSGKDVAVEEFPRKLLTFKEKLGEGQFGEVHLCEVEGMEKFKDKDFALDVSANQPVLVAVKMLRADANKNARNDFLKEIKIMSRLKDPNIIHLLAVCITDDPLCMITEYMENGDLNQFLSRHEPPNSSSSDVRTVSYTNLKFMATQIASGMKYLSSLNFVHRDLATRNCLVGKNYTIKIADFGMSRNLYSGDYYRIQGRAVLPIRWMSWESILLGKFTTASDVWAFGVTLWETFTFCQEQPYSQLSDEQVIENTGEFFRDQGRQTYLPQPAICPDSVYKLMLSCWRRDTKNRPSFQEIHLLLLQQGDE,failed
7,AELQQTEKASAKKQDKAEIRNVIVMIGDGMGTPYIRAYRSMKNNGDTPNNPKLTEFDRNLTGMMMTHPDDPDYNITDSAAAGTALATGVKTYNNAIGVDKNGKKVKSVLEEAKQQGKSTGLVATSEINHATPAAYGAHNESRKNMDQIANSYMDDKIKGKHKIDVLLGGGKSYFNRKNRNLTKEFKQAGYSYVTTKQALKKNKDQQVLGLFADGGLAKALDRDSKTPSLKDMTVSAIDRLNQNKKGFFLMVEGSQIDWAAHDNDTVGAMSEVKDFEQAYKAAIEFAKKDKHTLVIATADHTTGGFTIGANGEKNWHAEPILSAKKTPEFMAKKISEGKPVKDVLARYANLKVTSEEIKSVEAAAQADKSKGASKAIIKIFNTRSNSGWTSTDHTGEEVPVYAYGPGKEKFRGLINNTDQANIIFKILKTGK,failed
8,AEVDQATKPAEAKYYIAGTITDATTGQELTTAKVTLGDKSVTSSFNEQVNYKAEGYALVVSADGYYPVKRQVYLNQVSDGQTSVATVNVALVSVEAAVIPPVVPPTDPETDINEGEATKVADKAVEVAKPSESTVTDMLAGTTATPEEKKALDETLEMAGGMKVGETTPEVLADGSILAITPVKFTNPIQDAPAMVPYFYNEGCELTGDVKEVAAPVTRADGAVAADIQKAFLSNAAKALNMNAGFVQKIGYTRISVLNGYSILGYTIKGQLVSKKLTFLISGKYYEGIVSYQKSVMIYPNYYSHDSHDSHDSHGFNPNAGGGSND,not failed
9,AFLNKHFAKKNHNISVDELSHALELTDKAELTEENNILEGIIRFGGETAKEVMTSRLDVVDLDIRTPFKDVIQCIIDNAYSRIPIYSGTRDNIKGVLYIKDLLPHLNKGDNFRWQSLIRPAYFVPETKMIDDLLRDFQANKIHIAIVVDEFGGTSGIVTMEDIIEEIVGEIHDEYDD,not failed
10,AGKQNEVELVAEKQLAFPLDEQTYYLSKSMFQFEENGKEYLHFENTQKSLYDIVIFDIENQQIAKRIPLHKTGPNGLPAVFGSRPSPDSQYILVAQNNISRLSSINSQGEIIRNYNFQTPEGRFTPLSFGSYYNAPAFIKDSCIFLRQEILKPDMKKEDWPRTHMFASQDLRTGEVKWIPIFYPPIFKEEYDNIAGGYGFSYDYNYKESRLVCGFFGYDSLMVTDDLKHIRWYNAKSRYLKSMKPKLGNSMEGINAIIKLNENPRYWHIMYDKYRNVYYRFAEMPYKLAPNESPYETPKGKEFSVIVLNADFEIIGETKFPGKKYFYKMSFVGREGLYISENNLENPQFDENKLVFTCFKIKNASPNK,not failed
11,AGVSDTAASVCITITAPSKAWNIAGLKCAQIIFSNPSDAEHWQQLSPVIKDGASTLGLIAAEAAYRYGTDFLNQEVAYLKNNHDFLLHEIPKRIPGAKITPMQATYLMWIDFRDTTIEGSPSEFFIEKAKVAMNDGAWFGEDGTGFCRLNFATSREVLEEAIDRMAKAVSHHT,failed
12,AHKYKRAEVVQNALLELSHIATQVSSLEEFYLGVHHHLKQLISADNFFIATLDVNSGAISVPFFADEKDAHPSQLYPEQSLSTLLQQGLTGYVFRTGQTLLCDESKVDELVNAEEIVNLGSPCHLWLGVPIKHEDIVTAVLVVQTYDTNVSYGDIEVELMTFICHHITGVMERLKHQEQLEQAIQQ,not failed
13,AHTKISPLGIDTLCFKVSTNPGQPLQPIAKVASGGELSRISLAIQVITAQKVDTPSLIFDEVDVGISGPTAAVVGKMLRTLGESTQVLCVTHLPQVAGCGHNQLFVAKHTKSGKTETQMRALNLEERVEELARLLGGTQITAHTLANAKELLNAA,failed
14,AIAASALEQFVNNVRQLSAQGQMTQLCELINKSGELLAKNLSHLDTVLGALDIQEHSLGVLAVLFVKFSMPNIPDFETLFSQVQLFISTCNGEHIRYATDTFAGLCHQLTNALVERKQPLRGISILKQAIDKMQMNTNQLTSVHADLCQLCLLAKCFKPAVPFLELDMMDICKENGAYDAKHFLCYYYYGGMIYTGLKNFERALYFFEQAITTPAMAVSHIMLEAYKKYILVSLILHGKVQQLPKYTSQIVGRFIKPLSNAYHELAQIYATNNPAELRALVNKHSETFTRDNNSGLVKQCLSSLYKKNIQRLTKTFLTLSLQDMASRVQLSGPQEAEKYVLHMIEDGEIYASINQKDGMVCFHDNPEKYNNPAMLHKIDQEML,not failed
15,AIAASLSDQSGSIGSEQTRPSGAIPVESLPPQALEQLIASLQQEVEQLADALQQLNFANQRWTLCKQSIEAFAEETTRVDLPGAQSRATDAISSTASAKPETSVEVNQNQRLLVPLSRSLYVLGRVINPERCLIDIGTGYHVERKLADAAEFFDRRLKHVRGSMRQLTLKIDQNQQQMQTIREILVRKLAGAQQAAEHT,failed
16,AIAEALWTNKIEDPLSLMSFTVPPLRLLSAAMWQVTERRQVKHYGMLEEFVSLVTETIPELLNQHQRAQLILGLRARHLLELCRGKHQGSLKEIQPHLKRLCRPRVNKEFADEDMEESEACFLDLVRTLISNPKEKEHYFQNIFPEEYGPKFDKNLHALMEDFLLKLDRMVSVPDLSETVSWLRTCPSLLDDCIDSVSVPKDMKSLLEHHTAKGNLQDSEGNNCTFSSQSLPPLVQVVISSDHTESGEPSDLNGQDNDDEQASKTSSDGWTIKKIKLKTETEEEDNDQNWPITEAKSTGTRDGYDDGCLGEEPNQTQS,failed
17,AIAPDSLYDSLECLSEKIEAEGLYTTFSSDKLVRRIKRSSETEKIILSRFLRARRFNVDSAFDSFLACLKFREAENVNSVGLDEFKNPLATFPFTTTGFCTFDGEPLLYGRASALDRFKIDPAIFHRGFISFLEFLGDTFEPSTMFVIIFDFTDFSPIRNVHFGCARDMLKVMQDFYPERLSKIFLVNYPSTLYGVYKIVSPFIDENTRSKLEWIPKNSLEQLLRYVSMEAIPYSIGGMAVYPVPPLSSQ,failed
